Data from patent publication US6645733B1, “Fluorescent intensity method for assaying binding between proteins or peptides” (Ingeneus Corporation, priority 1999, dated 2003).
No end group written: not given here.

Biological target: T1, human AT1 receptor (Homo sapiens, UniProt P30556)
T1 construct: purchased NEN Life Science Products Inc., Boston, Mass; host or cells: Chinese hamster ovary (CHO) cells, purified membrane preparation
T1 sequence (P30556 1-359): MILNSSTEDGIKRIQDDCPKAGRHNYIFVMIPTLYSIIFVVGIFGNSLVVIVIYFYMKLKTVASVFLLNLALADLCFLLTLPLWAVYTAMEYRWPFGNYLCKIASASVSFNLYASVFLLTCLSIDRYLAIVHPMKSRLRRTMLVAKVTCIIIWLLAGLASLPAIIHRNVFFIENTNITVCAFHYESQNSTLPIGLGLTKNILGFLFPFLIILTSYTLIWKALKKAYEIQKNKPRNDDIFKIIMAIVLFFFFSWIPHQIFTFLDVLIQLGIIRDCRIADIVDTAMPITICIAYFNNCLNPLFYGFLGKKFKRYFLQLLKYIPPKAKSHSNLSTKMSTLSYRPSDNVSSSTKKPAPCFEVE
Assay: Competition binding experiment: displacement of wildtype Flu-AII from AT1 receptor by unlabeled ligand
Conditions: all twelve concentrations 1 nM to 300 μM, 10 nM Flu-AII, 0.02 units AT1 receptor (data not shown)

## MLGFFQQPKPR [substance P]
  displacement of Flu-AII binding to AT1 receptor: unable to displace
